For experiment [1], the target named is Human αvβ3 integrin (Chemicon, #CC1018), biotinylated (human) (UniProt P06756). Briefly: flow cytometry, 293A cells displaying the ScFvFc, αVβ3-biotin 5 ug/ml, APC-streptavidin. Background: In flow cytometry, cells or beads pass a laser one at a time.
The target is the same in experiment [2]. Briefly: flow cytometry, 293A cells displaying the ScFvFc, αVβ3-biotin 10 ug/ml, APC-streptavidin.
Experiment [3] shares this target. Kind of experiment: flow cytometry, 293A cells displaying the ScFvFc, αVβ3-biotin 2.5 ug/ml, APC-streptavidin.
Experiment [4] shares this target. Kind of experiment: flow cytometry, 293A cells displaying the ScFvFc, αVβ3-biotin 0.5 ug/ml, APC-streptavidin.
For experiment [5] the target is unchanged. Briefly: flow cytometry, 293A cells displaying the ScFvFc, αVβ3-biotin 1 ug/ml, APC-streptavidin.

Chain of Human αvβ3 integrin (Chemicon, #CC1018), biotinylated (human) (P06756 31-1048 limits assumed, chain 1 of 2): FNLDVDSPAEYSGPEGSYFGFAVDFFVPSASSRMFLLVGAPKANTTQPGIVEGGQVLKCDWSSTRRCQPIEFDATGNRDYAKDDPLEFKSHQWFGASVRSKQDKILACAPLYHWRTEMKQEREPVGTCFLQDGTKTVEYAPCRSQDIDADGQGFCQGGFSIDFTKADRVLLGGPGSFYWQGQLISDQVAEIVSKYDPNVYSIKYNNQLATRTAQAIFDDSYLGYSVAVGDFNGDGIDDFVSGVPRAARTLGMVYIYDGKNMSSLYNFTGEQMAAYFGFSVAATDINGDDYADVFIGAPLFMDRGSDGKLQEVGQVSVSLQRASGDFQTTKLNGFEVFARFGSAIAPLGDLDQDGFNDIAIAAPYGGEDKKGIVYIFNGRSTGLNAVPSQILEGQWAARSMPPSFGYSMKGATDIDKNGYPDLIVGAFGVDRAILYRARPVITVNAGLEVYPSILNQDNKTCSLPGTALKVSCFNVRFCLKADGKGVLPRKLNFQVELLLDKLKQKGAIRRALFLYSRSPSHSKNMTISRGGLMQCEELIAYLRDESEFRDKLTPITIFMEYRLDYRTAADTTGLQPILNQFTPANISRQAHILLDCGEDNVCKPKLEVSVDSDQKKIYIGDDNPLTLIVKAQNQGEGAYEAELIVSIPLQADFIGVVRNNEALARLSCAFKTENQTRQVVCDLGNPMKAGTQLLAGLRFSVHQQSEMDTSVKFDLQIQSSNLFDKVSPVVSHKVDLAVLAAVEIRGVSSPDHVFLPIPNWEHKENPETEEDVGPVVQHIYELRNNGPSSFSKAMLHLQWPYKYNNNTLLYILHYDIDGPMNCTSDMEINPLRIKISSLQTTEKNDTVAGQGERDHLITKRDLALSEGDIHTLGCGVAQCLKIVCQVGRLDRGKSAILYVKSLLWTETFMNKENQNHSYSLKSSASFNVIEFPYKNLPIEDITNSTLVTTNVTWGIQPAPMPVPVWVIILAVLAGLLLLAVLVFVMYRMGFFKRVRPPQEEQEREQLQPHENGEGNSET
Chain of Human αvβ3 integrin (Chemicon, #CC1018), biotinylated (human) (P05106 27-788 limits assumed, chain 2 of 2, further chain): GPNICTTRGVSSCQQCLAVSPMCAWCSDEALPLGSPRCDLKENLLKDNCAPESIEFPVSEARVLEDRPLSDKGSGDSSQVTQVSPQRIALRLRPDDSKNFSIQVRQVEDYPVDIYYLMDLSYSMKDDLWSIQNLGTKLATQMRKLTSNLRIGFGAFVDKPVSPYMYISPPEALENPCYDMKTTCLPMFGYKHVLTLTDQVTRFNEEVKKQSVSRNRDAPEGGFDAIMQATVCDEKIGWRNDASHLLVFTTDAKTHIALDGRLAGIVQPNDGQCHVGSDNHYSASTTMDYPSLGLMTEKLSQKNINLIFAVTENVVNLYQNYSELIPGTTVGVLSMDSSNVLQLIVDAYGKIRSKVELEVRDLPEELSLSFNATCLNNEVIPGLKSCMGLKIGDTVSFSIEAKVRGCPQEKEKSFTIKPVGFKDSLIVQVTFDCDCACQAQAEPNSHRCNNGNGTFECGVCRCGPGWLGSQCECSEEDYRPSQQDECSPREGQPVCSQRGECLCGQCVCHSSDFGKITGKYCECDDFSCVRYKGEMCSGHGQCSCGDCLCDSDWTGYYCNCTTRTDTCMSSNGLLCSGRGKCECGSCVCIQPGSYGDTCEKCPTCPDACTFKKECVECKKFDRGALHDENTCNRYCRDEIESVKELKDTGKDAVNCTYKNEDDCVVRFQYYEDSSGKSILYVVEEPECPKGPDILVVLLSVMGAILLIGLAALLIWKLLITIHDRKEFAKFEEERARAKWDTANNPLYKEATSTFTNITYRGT

B1: Abegrin anti-αvβ3 integrin ScFvFc, displayed on 293A cells (scFv, INN chains, looked up, V domains shown)
VH: QVQLVESGGGVVQPGRSLRLSCAASGFTFSSYDMSWVRQAPGKGLEWVAKVSSGGGSTYYLDTVQGRFTISRDNSKNTLYLQMNSLRAEDTAVYYCARHLHGSFASWGQGTTVTVSS
VL: EIVLTQSPATLSLSPGERATLSCQASQSISNFLHWYQQRPGQAPRLLIRYRSQSISGIPARFSGSGSGTDFTLTISSLEPEDFAVYYCQQSGSWPLTFGGGTKVEIK
modifications: scFv-Fc displayed on 293A cell surface
Take B1: the Percentage of positively stained cell in experiment [1] was found to be 84%; in experiment [2], 90%; in experiment [3], 85%; in experiment [4], 81%; in experiment [5] it was 83%.

Source of the values: patent publication US20070111260A1.
